From the DeepSol protein solubility set come the findings set out here.

The series is described as follows: soluble on expression in E. coli; label from the status in PepcDB or PDB records.
Turning to “MAHHHHHHMGKPGKKAGKGLLAPTNPNRRTDPNKTSLRDQRTIKRLKMYKSKIKRDEKGNIIKGSVLKASDRIEQQMARIAPDRRWFGNTRTIGQEALQKFREEMGTKYKDPYSVIIKQSKLPLSLLEEPKNTDGSIRKEMEWDKTFGDKANRKRVRLNAVDMSTLATEANVKGDYYDCNKKEKDRDLMKGVHKDRDDKTRNGILMTKGQSNRIWCELYKVIDSSDVVLYVVDARDPMGTRSAFLEDFMRREKKYKHFVLVLNKCDLVPLWATARWLQILSKDYPTIAFHASVNHPFGKGNVISLLRQFARLHNVTHRGSKRTKTPISVGVIGYPNVGKSSLINTLRRKSVCKVAPIPGETKVWQYVALTRSIFLIDCPGVVYDRESNNDIQAVLKGVVRVERLGNADKTDVVDTVLKIVKQRDIVATYGVREWRDVVDFLEKLAKLRGKLVAGGEPDVEAAARMLLYDWQRGRLPWFNAPPFESNKHHRDAMEQPQEKHMKLIEHYSTFNVVDDTINRGDEKQDEGGDGDEETANNAADEDQLDSGSEAEKDEEAVKPLKPSKTDRLSATKADTQLATVATYMREQEEKQRKAQRQQKRKAARKGQEDVEAFSADADRESDDALWAQFLAAAKV”, the “soluble on expression in E. coli” value is listed as “soluble”.

On to “MAHHHHHHMGQGLTGGAMAGAALSITALPLRLTLADHLGICGAATACGLALDFASDCCSKEGRVIIHRDVLLKAQDPLRHLSTFYTTCESNRMARLFRQKHEWVVLESHGQQYYVVQKNPATGDVLMDVRNSLRAANDVGLQVAGKPMHTGEIRQHRMETEFDLPSDLQVAYVIAWLRKEDPRWAFSTENSRQFTARVRYALMDF”, for which the “soluble on expression in E. coli” value was “not soluble”.

In the case of “MAHHHHHHMGTLEAQTQGPGSMRRVVVTGMGIVSSIGSNTEEVTASLREAKSGISRAEEYAELGFRCQVHGAPDIDIESLVDRRAMRFHGRGTAWNHIAMDQAIADAGLTEEEVSNERTGIIMGSGGPSTRTIVDSADITREKGPKRVGPFAVPKAMSSTASATLATFFKIKGINYSISSACATSNHCIGNAYEMIQYGKQDRMFAGGCEDLDWTLSVLFDAMGAMSSKYNDTPSTASRAYDKNRDGFVIAGGAGVLVLEDLETALARGAKIYGEIVGYGATSDGYDMVAPSGEGAIRCMKMALSTVTSKIDYINPHATSTPAGDAPEIEAIRQIFGAGDVCPPIAATKSLTGHSLGATGVQEAIYSLLMMQNNFICESAHIEELDPAFADMPIVRKRIDNVQLNTVLSNSFGFGGTNATLVFQRYQG”, the “soluble on expression in E. coli” value is “soluble”.

In the case of “MAHHHHHHMHHGATLHESLPCPLVSPIVSIDQCPFQPHERSETRPPHGNASLTFYTARSRCRVNFTPGPNVTYSAENKYSWNPYYRLETENKSQRLKAAQEECNSASVSGPCPIALTPRQGQCMARCSNTSSSTAQSPMHTFGCETPAIVSRCELSPQFSSVKSESGRALLTASHSIEENSITESTCVPQFDNMMHGLPMYASIHPVGEVWPLNEMNNEENVVFDAIKPTRNEQLQQQLYPTPLLVSQNQPTVSPYPYVMESRTIQPTYVSYNKARVPLLRFSKMLPPPVRCEAMSILENENPQLPLLMMYNPVLRWYERIKALLNEDYSAWPGGSCAVNISNNKSVRLELEEPCPTLPNKAEQTRENMSQWLKECNEWWDRQFFEKSRNGDKRRNGTGRGKWRQYSIQYPYNNHNNNNKAHKVNRGMQFDGEVAFLRRGGLQ”, the “soluble on expression in E. coli” value was “not soluble”.

Regarding “MAHHHHHHMHIGLAAAVPSPTTAPQWLQDIENQLLIRNAIELKPSQSIFDSYTTLHVSVLHLQTVEDERQRLRMERSRLTERVRELEQAAANSSLQTSYERELEAKKDALQDQLRVYMQRESDYYKALSEVKAVQEERDMLRLRSNKLDAELEQRTAELQLLHKEYTALRDEYDRVRLTVSEADRYLREVKTAKEKTVQLQHRIVTLEDEVNMLRRQLQEALKGETAAAVDKAKRANPNKDGEDAEVAPSPMHTTHSPHTDPCTTLSPNPLGAEPSHASMVISEAHTSSTLHGLCVLDDGKRFLTSGADKHIRLWNRQSPQAEKYFSSSSIALALDTSSHYLLAGCADHVVRFWDVNSLRVLEMTGHTEKVVAACLSSSAQHAFTASSDSTIKLWDVRRRESLRTLLCQSTCNDVTVAGDTVFSAHYNGKITVWDRRTATRSGEVVAHQRVATCVRVSANGQLCVSMGKDNVISVRDARVFTKTLFSVAPVQLVVMMNWARLSIAPSGQLCAVGSGRTSDLLLIRLHGGGQGDAEATDSASSPALVKVLKACVSNATSYGDQGSGSSKGPIFSTAWGASEGGPLVSISNDRCVQVWE”, the “soluble on expression in E. coli” value was “not soluble”.

As to “MAHHHHHHMHVKHRATGRVVATLPFEPMPTLEDVSDAFIKAESTTATTHTGDLTVPTAYDNAEEDVDGAEEGETMYAVVYDLVTPTAPGDNGDSELAAAVTAAGLLENLPADADGTCNIGETMRKLVELGAAELLTAEPLSVSQARREYNPPEAPGLLRRIVYPASQYSPYRLDRDPLHTDKLSFYRSSTVTASVPSGPPPTSCTGLHALPVWDYGEGGLYTSYFDSYDLSCPMRGPFVRPSAAGKAALVMPLSDEEHHRIFGA”, the “soluble on expression in E. coli” value is recorded as “soluble”.

Regarding “MAHHHHHHMIFIHSLRLRHNLVSKNVERCTVFAFLDADFITAIRHKVRELKRAARRQPHRSALEVYSQERPTRHHVLPPPHYFSEKVGVDCCVLYIPEVEDFPLLDAFFFVNSNPVTLVGLRMATAGEHHTTASTVRQFTECLAAYFNGWEELSRDMSWETIYVQHADSTPMNDWQRCDVVNSDNVSKKENREIVAFWEEEVHQYLAVISSADARRGEAL”, the “soluble on expression in E. coli” value is given as “not soluble”.

In the case of “MAHHHHHHMILPRYAYAHADMDQKQMQKLLLMGPGGAGKTCMRSIIFDNYLPRDALRLGITISLDQSQVHILRNLFLNLWDCGGQHRYVTEYLNRQKEYIFRYVGVMLFVFDINSMCRDSHGGIGGLGGVGGESSSATTDWKLPEMLEYFREAMRFIRQYSPKAKVFVLLHKIDLIHKDIREEIFQARKQEILNCIDSDNGMNIEFFGTSIWSDSLYLAYSSVVRSLVPHRDVLVEMMRGIAMACDAAEVALYERSTFLCLTHINRKAAADGSKALFLQGDGELRTTEVSETVKHFKLSCMNNTTSLGGLSITTETFTALLCPFTECTHVLVVSVDPKVNVELHRLNVNAARRRFEQFLDSDEPTACAMREVL”, the “soluble on expression in E. coli” value is “not soluble”.

As for “MAHHHHHHMKAGGGLVALLAQTVVAGDVNACCGVLRRVFSETLQEDRRLTALASNAARSVRRRSHHSAGTAPSFATAPAAATKTLSSSASSSSLSSSSALATSSGPDDVVNFARYAQHQRAQAHSFANAAAQAVLRTSFVPPDGVRPLAVAAAGTKGHPTDAEVPQSHRASSAFGAPTDTPIAQRVWKLARSTLSTDSALVKTSSLHVLCHTAQRTGYWEEALHFCEYLPQSPAPLFLSSLLRPDNVNPILQHCATRGWALDVTNAIRVLAEEHGSWSAALVVAQDAEHRLPCGEAYSLGVLVPYLAVSGATAQARQLFESGLAHGALIDPVLVQQLVMQTATLRQWETCLHMLQCLYRTQETAQLLPADADFFCRLMEVSPGWVTSLQLLHMARASDVKPNERTVAILLTQCDQAGAWREAAAVYDMAVKEDFIDSLAVGSTYHTLVRSFSAIQQWQKALEALSWMSKADDASLTAGMMELVTLCEQSGQWEAALSVGSTLMDSGVHLLSTQTSMALLFLCAKGAQWEFAMRLFDAQLHDVRVDPHPLSLCAVMQACVAARQWEAALRVYDAAKASQPRMVVPPLAHRIAVKACVSAGKWNLAIAVLDATRQDGLPLDNYSQRLGLWAAAIQGQWELSLAFFQGIPRRSRTPQDRMMVRHVTRAISPAVDAIALRFLQSH”, the “soluble on expression in E. coli” value is listed as “not soluble”.

In the case of “MAHHHHHHMKAGKSGHRIYVGNIPGSMSKQEIIKAFEEFGKITEIDIKYNRNTNGTNYAFIEYESYKSAEKTIENKNGQKLKGYMLKVEYSIDKKNKEGGDLIALGGREAVSKGLLTNVRLPKNRSHYRVVVKNFPRKKIKLDGIKTFLMKAGKVIYTQLEDEITIAEYDCREGMLRAVNTLDRTMFNSTRKVYVRVLKDLPYDDSDADDSAQGCR”, the “soluble on expression in E. coli” value was “not soluble”.

For the sequence “MAHHHHHHMKCFYITEKGKKQNFRNIKLITFDLDHTIWNIDGLLNYADKECYEYMKKNYRRLYDYLQEEYQLSITNLVKQLLENKIEDNNDGVQTLTNMRIDALKFLAKKTNYDEGKFVSEIQELWKEKKNDVHLFISPGTLEYLRELKRRGYTLGAITNGDSDVNGIKFLNEIFTFVIRSMDYNHSKPSVEIFNIAENILKKKNFHFEIHQWMHVGDDVYTDIMGAKNKNINCAWITMFRDGSEVPPNDWYPYLKLKLEENGDSHLSQYDPFADGLFSRFRRRDVVLPYEYIDIE”, the “soluble on expression in E. coli” value is on record as “not soluble”.

For the sequence “MAHHHHHHMKEEIPQLQNLERDLLKQRNKYLSKVGNLLNKDVVISNDEDNNKVVTTWGVCKRLEVITDESSEENKSGKGGSKDGGSNKREVPSSSSISGGVVHPNSSIEGKKYYYHFDLLRKIVGANFKKGIQVAGHRGYYFTGAGFFLHNAILQYAINFLVSKNYTPVYPPFFMKKNIMEECAELDDFEETLYKIASSGGNSTATTGTASGALVSKNLNQNDELSRDDLFLIATSEQPLCALHKDETIESKYLPLKYAGVSSCFRKEAGAHGKDIRGILRVHQFDKIEQFCLSLPQTSSKVHKQMMKTCEEFYQSLNIPYRIVSIVSGALNNAAAIKYDLEGYFPSSNQYRELVSCSNCTDYQSNNLNVKYVDSSVRITDVKEDRKKKENTGDHQDDDDDDEIGSDHEEFLKNFHTESRNNVHLLNGTMVAAQRFLCCLLENYQNGEGIVVPEKLRPYMNNVDFIPFIE”, the “soluble on expression in E. coli” value was “not soluble”.

Regarding “MAHHHHHHMKGNKGANIAYPDKYHKVTEFFDREYGDLETCTKLNDCQKLLFYALRQQVEHGPCTSGAPFIWQVRERAKHDAWKQLGAMTKFEAMVHFVTHLEECIGGNVDWGEKLRDLNGMRDQQRVGVENGTGESNANEQTERGVSEAHWDADVQAHLQPSAENIEYLAREVMRLRGELQQVRPNRVVPTPIVVPPRKPIDYVSTKNIVPPARTLATVATRTALLNAQTTNNLVERQPQGWGEWFGL”, the “soluble on expression in E. coli” value is reported as “not soluble”.

Regarding “MAHHHHHHMKKKVELKFLGGLESYLEDKSKNVVTLEIESEKLSFENLIAYIRNHILVDRKDVFADHVLCDGTEFCQVVVDHVERKNYNLNEKAKIKPGIIVLINEYDWEIMHMYEYQIRDGDKLCFLSTLHGG”, the “soluble on expression in E. coli” value is on record as “not soluble”.

Turning to “MAHHHHHHMKLYSLAIVKPYPSGVEKQPVICSQAIDVSSFGFFQRNSAREFIVFLTRTVSNRVAKGVKTQITENGNVVFAHATFDGLVALAISDVEYNSRVAFTLLGDLVQQFQTTFRGKYDLVDGKEDNFLSWPHLTETLEKYQKPEEQDKILKIKRDIEDTKVIMYNAIDQIIERGQKIDDLVAQSEDLGMASKTFYKQAKKTNSGCCTVM”, the “soluble on expression in E. coli” value is listed as “soluble”.

With “MAHHHHHHMKPTPLRGQPGLSRNGEGHNDRATSAASHLWARGARTQSPRRGQKESIATRTAVNNGGGPTHAATTRRSAQASRRTSTRYFKLPDAIAEKGEGAFSPTEPDCGATVLRHPASGRRHEEGEQGGSGIVCDVGVGAEKVAGGRLTTLRRTRGQPNKEASRTAFSMATDDVAPPTRLQYARMPRPMSQMNRTPLGVAVLGLQKIAARSETKRTRPLKRKRRINLPAAGPNGSDGLHSDLRG”, the “soluble on expression in E. coli” value was “soluble”.

Regarding “MAHHHHHHMKTKVELKFLGGLESYLANKSKNYVSLEIESEEFNFENLIAYIRNHIIVDRKDVFSDFVMSDGNVKSCNVMIDDKEYSNYNLSDKGKIKPGIIVLINEYDWEILDTYTYKIKNNDKICFLSTLHGG”, the “soluble on expression in E. coli” value is reported as “soluble”.

Take “MAHHHHHHMKYMPQRPCIGICQGCWTVQLGGVNQYIQIWRYENLKHRYDCRKQVEQDQEWLRTYVKPADDMMISKSNTLLRLVYREGNASTQSYKYLMQVSPHKEVELSGPSATLAATFQVIVGEEEGKYIHLVKGHKLDDVIPVTPTLGCSSKIMGPVRWSSTMNCLWR”: the “soluble on expression in E. coli” value is “not soluble”.
